Assay results reported in US20170349663A1 (Memorial Sloan Kettering, published 2017).

Target: full-length human EphA2 protein on cells (human, UniProt P29317 24-976)
Assay: cell-based or functional assay

Chain of full-length human EphA2 protein on cells (P29317 24-976): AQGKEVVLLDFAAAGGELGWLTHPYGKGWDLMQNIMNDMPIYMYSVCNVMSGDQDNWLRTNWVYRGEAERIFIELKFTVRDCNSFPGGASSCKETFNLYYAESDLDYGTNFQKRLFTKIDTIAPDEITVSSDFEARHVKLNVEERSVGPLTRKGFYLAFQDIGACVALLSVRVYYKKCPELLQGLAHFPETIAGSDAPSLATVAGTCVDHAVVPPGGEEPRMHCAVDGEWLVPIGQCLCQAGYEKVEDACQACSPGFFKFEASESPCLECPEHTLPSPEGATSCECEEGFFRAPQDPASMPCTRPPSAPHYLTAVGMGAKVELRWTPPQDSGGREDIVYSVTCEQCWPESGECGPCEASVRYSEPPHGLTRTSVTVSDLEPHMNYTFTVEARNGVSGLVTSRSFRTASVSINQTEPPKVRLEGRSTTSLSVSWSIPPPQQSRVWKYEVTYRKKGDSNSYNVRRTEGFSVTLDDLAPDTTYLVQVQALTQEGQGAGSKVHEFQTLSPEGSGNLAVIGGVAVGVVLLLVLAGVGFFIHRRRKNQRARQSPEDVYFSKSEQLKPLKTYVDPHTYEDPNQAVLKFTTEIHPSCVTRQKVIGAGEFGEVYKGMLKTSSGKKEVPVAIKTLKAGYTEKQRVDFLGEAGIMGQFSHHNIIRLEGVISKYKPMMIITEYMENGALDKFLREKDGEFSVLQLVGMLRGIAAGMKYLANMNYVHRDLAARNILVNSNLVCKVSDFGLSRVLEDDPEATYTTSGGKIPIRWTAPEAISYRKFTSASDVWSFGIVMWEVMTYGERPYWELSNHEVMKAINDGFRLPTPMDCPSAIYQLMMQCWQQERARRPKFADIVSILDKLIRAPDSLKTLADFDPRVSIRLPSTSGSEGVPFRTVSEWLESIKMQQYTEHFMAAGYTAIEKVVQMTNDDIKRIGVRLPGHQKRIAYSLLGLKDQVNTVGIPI

B1: anti-EphA2 scFv antibody D2, monomeric scFv-6xHis (scFv)
scFv: EIVLTQSPGTLSLSPGERATLSCRASQSVSSSNLAWYQQKPGQAPRLLIYGASSRATGVPDRFSGSGSGTDFTLTISRLEPEDFAVYYCQQSSSYPWTFGQGTKVEIKRTGGGGSGAGGSGGGGTGGGGSEVQLLESGGGLVQPGGSLRLSCAASGFTFSRYWMHWVRQAPGKGLEWVSSISPYDGETNYADSVKGRFTISRDNSKNTLYLQMNSLRAEDTAVYYCARISEWYNWAVDVFDYWGQGTLVTVSSHHHHHH
  decrease in cell number after 72 hours in culture relative to vehicle control treatment, 0.5 ug, EphA2-high AML cells: 52.6%
  decrease in cell number after 72 hours in culture relative to vehicle control treatment, 1.0 ug, EphA2-high AML cells: 99.3%
